Results reported in patent US20230287126A1 (BIO THERA SOLUTIONS, published 2023).

What follows are binders tested against T1, human PD-L1 overexpressed on CHO cells (human, UniProt Q9NZQ7 19-290) (assay: cell-based or functional assay).
T1 sequence (Q9NZQ7 19-290): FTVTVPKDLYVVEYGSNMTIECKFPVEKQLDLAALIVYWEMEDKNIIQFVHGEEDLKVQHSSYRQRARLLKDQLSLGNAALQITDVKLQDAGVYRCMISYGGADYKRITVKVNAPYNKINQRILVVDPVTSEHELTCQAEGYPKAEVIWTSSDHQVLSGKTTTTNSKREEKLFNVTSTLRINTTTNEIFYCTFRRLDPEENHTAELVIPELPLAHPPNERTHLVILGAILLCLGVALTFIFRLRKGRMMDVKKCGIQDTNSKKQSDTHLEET

| Binder | EC50 (luciferase reporter luminescence, PD-1/PD-L1 Blockade Bioassay, CHO-PD-L1 + Jurkat-PD1 cells) [µg/mL] |
| --- | --- |
| L1-R2-78 (antibody, V domains shown) VH: not shown VL: DIQMTQSPSSFSASTGDRVTITCRASQGISSYLAWYQQKPGKAPKLLIYAASRLQSGVPSRFSGSGSGTDFTLTISSLQAEDVAVYYCQQYYSTPYTFGQGTKVDIKR | 3.57 |
| L1-R2-4 (antibody, V domains shown) VH: not shown VL: EIVLTQSPSSLSASVGDRVTITCLASQTIGTWLAWYQQKPGKSPQLLIYAASTLQSGVPSRFSGSGSGTDFTLTISSLQPEDVATYYCQQYYSTPRTFGQGTKVEIKR | 2.74 |
| L1-R2-89 (antibody, V domains shown) VH: not shown VL: DIQMTQSPSSLSASVGDRVTITCLASQTIGTWLAWYQQKPGKSPQLLIYAASSLQSGVPSRFSGSGSGTDFTLTISSLQPEDVATYYCQQYYSTPYTFGQGTKVDIKR | 3.78 |
| L1-R2-6 (antibody, V domains shown) VH: not shown VL: EIVLTQSPSSVSASVGDKLTMTCQASQDIGKHLNWYQQKPGKPPKLLIYGASNLKTGVPSRFSGTGSGTDFTLTISSLQPEDFATYYCQQSYTTPYTFGQGTRLEIKR | 3.92 |
| L1-R2-18 (antibody, V domains shown) VH: not shown VL: EIVLTQSPSSVSASVGDRITITCRASQGIGSWLAWYQQKPGKAPSLLIYAASSLQSGVPSRFSGSGSGTDFTLTISSLQTEDVAVYYCQQYFSTPYTFGQGTKVDIKR | 5.09 |
| L1-R2-85 (antibody, V domains shown) VH: not shown VL: DIQMTQSPSSLSASVGDRVTIPCRASQGIGKFLAWYQQKPGKAPSLLIYAASSLQSGVPSRFSGSGSGTDFTLTISSLQTEDVAVYYCQQYFSTPYTFGQGTKVDIKR | 5.22 |

Target: T1, human PD-L1 overexpressed on CHO cells
Assay: cell-based or functional assay
Remark: another data set of the same source

| Binder | EC50 (luciferase reporter luminescence, PD-1/PD-L1 Blockade Bioassay, CHO-PD-L1 + Jurkat-PD1 cells) [µg/mL] |
| --- | --- |
| L1-R2-4-71 (antibody, human IgG1, kappa, V domains shown) VH: EVQLVESGGGLVQPGGSLRLSCAASGFTFSDSWIHWVRQAPGKGLEWVGWISPYGGSTYYADSYRSRFTISADTSKNTAYLQMNSLRAEDTAVYYCARRHWPGGFDYWGQGTLVTVSS VL: EIVLTQSPSSLSASVGDRVTITCLASQTIGTWLAWYQQKPGKSPQLLIYAASTLQSGVPSRFSGSGSGTDFTLTISSLQPEDVATYYCQQYYSTPRTFGQGTKVEIKR | 0.382 |
| L1-R2-4-46 (antibody, human IgG1, kappa, V domains shown) VH: EVQLVESGGGLVQPGGSLRLSCAASGFTFSDSWIHWVRQAPGKGLEWVGWISPYGGSTYYADSLGDRFTISADTSKNTAYLQMNSLRAEDTAVYYCARRHWPGGFDYWGQGTLVTVSS VL: EIVLTQSPSSLSASVGDRVTITCLASQTIGTWLAWYQQKPGKSPQLLIYAASTLQSGVPSRFSGSGSGTDFTLTISSLQPEDVATYYCQQYYSTPRTFGQGTKVEIKR | 0.224 |
| L1-R2-4-47 (antibody, human IgG1, kappa, V domains shown) VH: EVQLVESGGGLVQPGGSLRLSCAASGFTFSDSWIHWVRQAPGKGLEWVGWISPYGGSTYYADHLSQRFTISADTSKNTAYLQMNSLRAEDTAVYYCARRHWPGGFDYWGQGTLVTVSS VL: EIVLTQSPSSLSASVGDRVTITCLASQTIGTWLAWYQQKPGKSPQLLIYAASTLQSGVPSRFSGSGSGTDFTLTISSLQPEDVATYYCQQYYSTPRTFGQGTKVEIKR | 0.389 |
| L1-R2-4-36 (antibody, human IgG1, kappa, V domains shown) VH: EVQLVESGGGLVQPGGSLRLSCAASGFTFSDSWIHWVRQAPGKGLEWVGWISPYGGSTYYADDFRHRFTISADTSKNTAYLQMNSLRAEDTAVYYCARRHWPGGFDYWGQGTLVTVSS VL: EIVLTQSPSSLSASVGDRVTITCLASQTIGTWLAWYQQKPGKSPQLLIYAASTLQSGVPSRFSGSGSGTDFTLTISSLQPEDVATYYCQQYYSTPRTFGQGTKVEIKR | 0.148 |
| L1-R2-4-55 (antibody, human IgG1, kappa, V domains shown) VH: EVQLVESGGGLVQPGGSLRLSCAASGFTFSDSWIHWVRQAPGKGLEWVGWISPYGGSTYYADGMRSRFTISADTSKNTAYLQMNSLRAEDTAVYYCARRHWPGGFDYWGQGTLVTVSS VL: EIVLTQSPSSLSASVGDRVTITCLASQTIGTWLAWYQQKPGKSPQLLIYAASTLQSGVPSRFSGSGSGTDFTLTISSLQPEDVATYYCQQYYSTPRTFGQGTKVEIKR | 0.401 |

Each binder was assayed against T2, PD-L1-His-Biotin (human, UniProt Q9NZQ7 19-238, biotin-labelled (sites not given)) (assay: flow cytometry of yeast-displayed scFv with 1 nM PD-L1-His-Biotin, Streptavidin-PE).
T2 construct: also called PD-L1-His-Biotin antigen protein
T2 sequence (Q9NZQ7 other isoform, or with tags, fused parts or gaps): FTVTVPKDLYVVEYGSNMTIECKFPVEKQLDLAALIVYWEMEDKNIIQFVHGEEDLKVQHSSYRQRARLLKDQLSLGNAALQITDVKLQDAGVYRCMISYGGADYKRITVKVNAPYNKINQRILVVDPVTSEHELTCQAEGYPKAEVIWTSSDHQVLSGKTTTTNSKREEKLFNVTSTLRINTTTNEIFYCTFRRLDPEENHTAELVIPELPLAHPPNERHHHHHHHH
Experimental: (§1) The yeasts described above were incubated with 1 nM of PD-L1-His-Biotin antigen protein at room temperature for 1 h, washed 3 times with PBS at pH 7.4, then incubated with Streptavidin-PE fluorescent secondary antibody at room temperature for 30 min, and washed 3 times with PBS at pH 7.4. The fresh PBS was added, and loaded on the machine for assay.

| Binder | binding result |
| --- | --- |
| CP11-71 scFv (scFv, display fusion partner not described; VH at N terminus) scFv: EVQLVESGGGLVQPGGSLRLSCAASGFTFSDSWIHWVRQAPGKGLEWVGWISPYGGSTYYADSYRSRFTISADTSKNTAYLQMNSLRAEDTAVYYCARRHWPGGFDYWGQGTLVTVSSGGGGSGGGGSGGGGSEIVLTQSPSSLSASVGDRVTITCLASQTIGTWLAWYQQKPGKSPQLLIYAASTLQSGVPSRFSGSGSGTDFTLTISSLQPEDVATYYCQQYYSTPRTFGQGTKVEIK | binds |

The binders below were run against T2, PD-L1-His-Biotin (assay: flow cytometry of yeast-displayed scFv with 1 nM PD-L1-His-Biotin, Streptavidin-PE; positive rate %).
Experimental: as §1

| Binder | binding result |
| --- | --- |
| CP22-44 (scFv, also called CP22-44 scFv) scFv (VH - linker - VL, VH at the N terminus): EVQLVESGGGLVQPGGSLRLSCAASGLRPADSWIHWVRQAPGKGLEWVGWISPYGGSTYYADSVKGRFTISADTSKNTAYLQMNSLRAEDTAVYYCARRHWPGGFDYWGQGTLVTVSSGGGGSGGGGSGGGGSEIVLTQSPSSLSASVGDRVTITCLASQTIGTWLAWYQQKPGKSPQLLIYAASTLQSGVPSRFSGSGSGTDFTLTISSLQPEDVATYYCQQYYSTPRTFGQGTKVEIK | binds |
| CP22-45 (scFv, also called CP22-45 scFv) scFv (VH - linker - VL, VH at the N terminus): EVQLVESGGGLVQPGGSLRLSCAASNSHLRDSWIHWVRQAPGKGLEWVGWISPYGGSTYYADSVKGRFTISADTSKNTAYLQMNSLRAEDTAVYYCARRHWPGGFDYWGQGTLVTVSSGGGGSGGGGSGGGGSEIVLTQSPSSLSASVGDRVTITCLASQTIGTWLAWYQQKPGKSPQLLIYAASTLQSGVPSRFSGSGSGTDFTLTISSLQPEDVATYYCQQYYSTPRTFGQGTKVEIK | binds |
| CP22-40 (scFv, also called CP22-40 scFv) scFv (VH - linker - VL, VH at the N terminus): EVQLVESGGGLVQPGGSLRLSCAASGFTFSDSWIHWVRQAPGKGLEWVGWISPYGGSTYYADSVKGRFTISADTSKNTAYLQMNSLRAEDTAVYYCARRHWPGGLLPWGQGTLVTVSSGGGGSGGGGSGGGGSEIVLTQSPSSLSASVGDRVTITCLASQTIGTWLAWYQQKPGKSPQLLIYAASTLQSGVPSRFSGSGSGTDFTLTISSLQPEDVATYYCQQYYSTPRTFGQGTKVEIK | binds |
| CP21-59 (scFv, also called CP21-59 scFv) scFv (VH - linker - VL, VH at the N terminus): EVQLVESGGGLVQPGGSLRLSCAASSFSLKDSWIHWVRQAPGKGLEWVGWISPYGGSTYYADSVKGRFTISADTSKNTAYLQMNSLRAEDTAVYYCARRHWPGGFDYWGQGTLVTVSSGGGGSGGGGSGGGGSEIVLTQSPSSLSASVGDRVTITCLASQTIGTWLAWYQQKPGKSPQLLIYAASTLQSGVPSRFSGSGSGTDFTLTISSLQPEDVATYYCQQYYSTPRTFGQGTKVEIK | binds |
